From paper PMC7857400 (2020)

Experiments:
[1] = target: T1, SARS-CoV-2 spike protein receptor binding domain (RBD) (SARS-CoV-2, UniProt P0DTC2 319-541); test: SPR
[2] = target: T1, SARS-CoV-2 spike protein receptor …; test: SPR; remark: listed apart in the source

B1: Nb21 (VHH)
VHH: QVQLVESGGGLVQAGGSLRLSCAVSGLGAHRVGWFRRAPGKEREFVAAIGANGGNTNYLDSVKGRFTISRDNAKNTIYLQMNSLKPQDTAVYYCAARDIETAEYTYWGQGTQVTVSS
In the case of B1, the Kd [1] is reported as < 1 pM and the koff [2] is reported as < 1e-06 s⁻¹.
